Substrate in the data set: CCn1c(=NN=c2sc3cc(S(=O)(=O)O)ccc3n2CC)sc2cc(S(=O)(=O)O)ccc21
Description: purified protein. Format: biochemical, Bacillus subtilis. The following applies: no H2O2, applied potential −0.190 V, aerobic (O2), pH 7.6, 298 K, 20 mM TRIS-HCl, 200 mM KCl, 25.0 °C.

B1: BsDyP (Bacillus subtilis subsp. subtilis str. 168) (protein)
chain: IGASGLGGLAPLVQTAAKPSKKDEKEEEQIVPFYGKHQAGITTAHQTYVYFAALDVTAKDKSDIITLFRNWTSLTQMLTSGKKMSAEQRNQYLPPQDTGESADLSPSNLTVTFGFGPGFFEKDGKDRFGLKSKKPKHLAALPAMPNDNLDEKQGGGDICIQVCADDEQVAFHALRNLLNQAVGTCEVRFVNKGFLSGGKNGETPRNLFGFKDGTGNQSTKDDTLMNSIVWIQSGEPDWMTGGTYMAFRKIKMFLEVWDRSSLKDQEDTFGRRKSSGAPFGQKKETDPVKLNQIPSNSHVSLAKSTGKQILRRAFSYTEGLDPKTGYMDAGLLFISFQKNPDNQFIPMLKALSAKDALNEYTQTIGSALYACPGGCKKGEYIAQRLLES
notes: signal (Tat) peptide deleted; plasmid pVB4; expressed in E. coli Tuner; purified
One may read the Km as the substrate concentration at which the rate is half of its maximum. As usually defined, the kcat is the number of substrate molecules converted per active site and unit of time at saturation. The term kcat/Km denotes the turnover number divided by the Michaelis constant. Consider B1, for which the Km stood at 1155 ± 100 µM, the kcat came out at 18 ± 1 s⁻¹ and the specificity constant (kcat/Km) came to 16000 M⁻¹ s⁻¹.

The values above are taken from article PMC8653965, “Direct Electrochemical Generation of Catalytically Competent Oxyferryl Species of Classes I and P Dye Decolorizing Peroxidases” (International Journal of Molecular Sciences, 2021).
